# Test results taken from the DeepSol protein solubility set.
# Assay: soluble on expression in E. coli; label from the status in PepcDB or PDB records
row,Sequence,soluble on expression in E. coli
1,SEDKKKKRSPKPCLTQQAQAPGTLRRVPVPTSHSGSLALGLPHLPSPKQRAKFKRAGKEKCRPVLAGGGGGSAGTPLQHSFLTEVTDVYEMEGGLLNLLNDFHSGRLQAFGKECSFEQLEHVREMQEKLARLHFSLDVCGEEEDEEEEEDGVTEGLPEEQKKTMADRNLDQLLSNLEDLSNSIQKLHLAENAEPEDQPAA,soluble
2,SELPRKANRRNSSCSSISSVSESSSPSALDESTLTKILPTDNFRGGRGFASPSPPTSLLSEPLSRMDVLSEKIWDYHNKVSQTDEMLQRKLHLRDMLYTAISPVFPLSGLYVVGSSLNGFGNNSSDMDLCLMITNKDLDQKNDAVVVLNLILSTLQYEKFVESQKLILAKVPILRINFAAPFDDITVDLNANNSVAIRNTHLLCYYSSYDWRVRPLVSVVKEWAKRKGINDANKSSFTSYSLVLMVIHFLQCGPTKVLPNLQQSYPNRFSNKVDVRTLNVTMALEEVADDIDQSLSEKTTLGELLIGFLDYYANEFNYDRDAISIRQGRRVERAALAVRPKIHSNSEGDKETPPPSSSASTSSIHNGGTPGIPMHHSISNPHFWRSQWRCVCIEEPFTNSNTAHSIYDEMVFEAIKKAFREAHGELQHNHDLDKLMECEPIKASTTNTGAAVFAATYEGERPLAQQPNTIACASLRVLNSIPVSSGPGHYHYQQQSNQNLSRPQRPGSNQGYQMNNNRGFNGNNQQQHQNRRSFNNQSSSNPGNGSTGPRSSRSNENVRDSSRQQNSQKGSSGVSVSKENVASTTGVPVDKKQQNSNRKDDGNRTKRSPMVQSPEPAKTKSEKTPMASSNVSQ,soluble
3,SESQDIKALQKELEQFAKLLKQKRITLGYTQADVGLTLGVLFGKVFSQTTICRFEALQLSFKNMCKLRPLLQKWVEEADNNENLQEICKAETLVQARKRKRTSIENRVRGNLENLFLQCPKPTLQQISHIAQQLGLEKDVVRVWFCNRRQKGKRSSSDYAQ,soluble
4,SETETKTLPLENASILSEGSLQEGHRLWIGNLDPKITEYHLLKLLQKFGKVKQFDFLFHKSGALEGQPRGYCFVNFETKQEAEQAIQCLNGKLALSKKLVVRWAHAQVKRYDHNKNDKILPISLEPSSSTEPAQSNLSVTAKIKAIEAKLKMMAENPDAEYPAAPVYSYFKPPDKKRTTPYSRTAWKSRR,soluble
5,SETWSVEQVCSWLVEKNLGELVHRFQEEEVSGAALLALNDRMVQQLVKKIGHQAVLMDLIKKYKQNTQGLKSPENPKKAALVMQTEAARDYRDKESSSPARHGEQMPSFYPAENLDNGLIDQRVLKQRRNVKQILARSKALQWTKSYVLPEFPYDVKCMLAEQKCPDHSMRIRIIEFLQADMTKYLEGSLYPSTQQYNDVVNALLQAHPFLDEDGCGFAGV,soluble
6,SEVRWCATSDPEQHKCGNMSEAFREAGIQPSLLCVRGTSADHCVQLIAAQEADAITLDGGAIYEAGKEHGLKPVVGEVYDQEVGTSYYAVAVVRRSSHVTIDTLKGVKSCHTGINRTVGWNVPVGYLVESGRLSVMGCDVLKAVSDYFGGSCVPGAGETSYSESLCRLCRGDSSGEGVCDKSPLERYYDYSGAFRCLAEGAGDVAFVKHSTVLENTDGKTLPSWGQALLSQDFELLCRDGSRADVTEWRQCHLARVPAHAVVVRADTDGGLIFRLLNEGQRLFSHEGSSFQMFSSEAYGQKDLLFKDSTSELVPIATQTYEAWLGHEYLHAMKGLLCDPNRLPPYLRWCVLSTPEIQKCGDMAVAFRRQRLKPEIQCVSAKSPQHCMERIQAEQVDAVTLSGEDIYTAGKKYGLVPAAGEHYAPEDSSNSYYVVAVVRRDSSHAFTLDELRGKRSCHAGFGSPAGWDVPVGALIQRGFIRPKDCDVLTAVSEFFNASCVPVNNPKNYPSSLCALCVGDEQGRNKCVGNSQERYYGYRGAFRCLVENAGDVAFVRHTTVFDNTNGHNSEPWAAELRSEDYELLCPNGARAEVSQFAACNLAQIPPHAVMVRPDTNIFTVYGLLDKAQDLFGDDHNKNGFKMFDSSNYHGQDLLFKDATVRAVPVGEKTTYRGWLGLDYVAALEGMSSQQC,soluble
7,SFVKDFKPQALGDTNLFKPIKIGNNELLHRAVIPPLTRMRALHPGNIPNRDWAVEYYTQRAQRPGTMIITEGAFISPQAGGYDNAPGVWSEEQMVEWTKIFNAIHEKKSFVWVQLWVLGWAAFPDNLARDGLRYDSASDNVFMDAEQEAKAKKANNPQHSLTKDEIKQYIKEYVQAAKNSIAAGADGVEINSANGYLLNQFLDPHSNTRTDEYGGSIENRARFTLEVVDALVEAIGHEKVGLRLSPYGVFNSMSGGAETGIVAQYAYVAGELEKRAKAGKRLAFVHLVEPRVTNPFLTEGEGEYEGGSNDFVYSIWKGPVIRAGNFALHPEVVREEVKDKRTLIGYGRFFISNPDLVDRLEKGLPLNKYDRDTFYQMSAHGYIDYPTYEEALKLGWDKS,soluble
8,SGALWDVPSPAATQKATLSEGVYRIMQRGLFGKTQVGVGIHMEGVFHTMWHVTRGSVICHETGRLEPSWADVRNDMISYGGGWRLGDKWDKEEDVQVLAIEPGKNPKHVQTKPGLFKTLTGEIGAVTLDFKPGTSGSPIINKKGKVIGLYGNGVVTKSGDYVSAITQAERIGEGPDYEVDEDIFRKKRLTIMDLHPGAGKTKRILPSIVREALKRRLRTLILAPTRVVAAEMEEALRGLPIRYQTPAVKSDHTGREIVDLMCHATFTTRLLSSTRVPNYNLIVMDEAHFTDPCSVAARGYISTRVEMGEAAAIFMTATPPGSTDPFPQSNSPIEDIEREIPERSWNTGFDWITDYQGKTVWFVPSIKAGNDIANCLRKSGKRVIQLSRKTFDTEYPKTKLTDWDFVVTTDISEMGANFRAGRVIDPRRCLKPVILTDGPERVILAGPIPVTPASAAQRRGRIGRNPAQEDDQYVFSGDPLKNDEDHAHWTEAKMLLDNIYTPEGIIPTLFGPEREKTQAIDGEFRLRGEQRKTFVELMRRGDLPVWLSYKVASAGISYKDREWCFTGERNNQILEENMEVEIWTREGEKKKLRPKWLDARVYADPMALKDFKEFASGRK,soluble
9,SGEVEISARAYGKMCLHASRYPHAAVNGLLLAPATGSGECLCLTDCVPLFHSHLALSVMLEVALNQVDVWGAQAGLVVAGYYHANAVLDDQSPGPLALKIAGRIAEFFPRAVLIMLDNKKLVTRPRVPPVIVLENQGLQWVPKDKNLVMWRDWEESRQMVGALLEGRAHQHLVDFDCHLDDIRQDWTNQRLNTQITQWSGSTDGNA,soluble
10,SGKMVSVINTVDTSHEDMIHDAQMDYYGTRLATCSSDRSVKIFDVRNGGQILIADLRGHEGPVWQVAWAHPMYGNILASCSYDRKVIIWREENGTWEKSHEHAGHDSSVNSVCWAPHDYGLILACGSSDGAISLLTYTGEGQWEVKKINNAHTIGCNAVSWAPAVVPGSLIDHPSGQKPNYIKRFASGGCDNLIKLWKEEEDGQWKEEQKLEAHSDWVRDVAWAPSIGLPTSTIASCSQDGRVFIWTCDDASSNTWSPKLLHKFNDVVWHVSWSITANILAVSGGDNKVTLWKESVDGQWVCISDVNKGQGSVSASVTEGQQNEQ,soluble
11,SGRLSVSRQNFEVHKHLNRLNKPAVKSIQSPDGDIIDCVHISKQPAFDHPFLKDHKIQMGPSYTPESLFGESKVSEKPKESVNPITQLWHQNGVCSEGTIPVRRTKKEDVLRASSVKRYGKKKHLSVPLPRSADPDLINQSGHQHAIAYVEGGKFYGAKATINVWEPKVQSSNEFSLSQLWILGGSFGQDLNSIEAGWQVSPDLYGDNNTRLFTYWTSDAYQATGCYNLLCSGFIQINSQIAMGASISPVSGFHNPQYDISITIWKDPKEGHWWMQFGDGYVLGYWPSFLFSYLADSASIVEWGGEVVNMEEDGHHTTTQMGSGQFPDEGFTKASYFRNIQVVDSSNNLKEPKGLNTFTEKSNCYDVEVGKNDDWGHYFYYGGPGRNPNCQ,soluble
12,SGSEPTKVMVAVNASTIKDYPNPSISCKRAFEWTLEKIVRSNTSDFKILLLHVQVVDEDGFDDVDSIYASPEDFRDMRQSNKAKGLHLLEFFVNKCHEIGVGCEAWIKTGDPKDVICQEVKRVRPDFLVVGSRGLGRFQKVFVGTVSAFCVKHAECPVMTIKRNADETPSDPADD,soluble
13,SGTPPGLQTDCEALLSRFQETDSVRFEDFTELWRNMKFGTIFCGRMRNLEKNMFTKEALALAWRYFLPPYTFQIRVGALYLLYGLYNTQLCQPKQKIRVALKDWDEVLKFQQDLVNAQHFDAAYIFRKLRLDRAFHFTAMPKLLSYRMKKKIHRAEVTEEFKDPSDRVMKLITSDVLEEMLNVHDHYQNMKHVISVDKSKPDKALSLIKDDFFDNIKNIVLEHQQWHKDRKNPSLKSKTNDGEEKMEGNSQETERCERAESLAKIKSKAFSVVIQASKSRRHRQVKLDSSDSDSASGQGQVKATRKKEKKERLKPAGRKMSLRNKGNVQNIHKEDKPLSLSMPVITEEEENESLSGTEFTASKKRRKH,soluble
14,SHMPASVQLHTAVEMHHWCIPFSVDGQPAPSLRWLFNGSVLNETSFIFTEFLEPAANETVRHGCLRLNQPTHVNNGNYTLLAANPFGQASASIMAAFMDNPFEFNPEDPIPDTNSTSGDPVEKKDE,soluble
15,SHPALTQLRALRYSKEIPALDPQLLDWLLLEDSMTKRFEQQGKTVSVTMIREGFVEQNEIPEELPLLPKESRYWLREILLSADGEPWLAARTVVPVSTLSGPELALQKLGKTPLGRYLFTSSTLTRDFIEIGRDAGLWGRRSRLRLSGKPLLLTELFLPASPLY,soluble
16,SIRTSFIKLPGSDGSRYCDSWRLAAETNNVGTWDLIPSICVDSVAEYLNGDQFLSDYSVIVDYALAFAKSVEISGDGKDVWIFDIDETLLTNIDYYKAHGYGSEPYDDNKFSEWVEQGTAPAFDASLRLYNALKKLGFTIILLTGRDEHQRTSTETNLRDAGYSGWERLLLRGPNDQGKSATNYKSEQRSKLIEEGFKIRGNSGDQWSDLQGFAVADRSFKVPNPMYYIP,soluble
17,SKDCIIQRYKDGDVNNIYTANRNEEITIEEYKVFVNEACHPYPVILPDRSVLSGDFTSAYADDDESC,soluble
18,SKGYFETNRIQHIIVDEAQNFHTEDGNWCEKAKGITQGGKACPRMFWIFLDYFQTSHLKESGLPDFELQYPKEELTQVVRNGDKIAEFLQQELGKIRDNPPCSIPRASLNIVHEFKWSQSISGTLKIKYLTSEKMVSYVANKCDVFLSKGYSPQDIAVLFSTDREKKAYEHMFLREMRKKRRASQMNDTSVCHSNMFDRIRRFSGLERSIVFGINPIATEQPISHNLLICLASRAMKYLYILYALTPEGQSSTVAC,soluble
19,SKIFSKCELARKLKSMGMDGFHGYSLANWVCMAEYESNFNTQAFNGRNSNGSSDYGIFQLNSKWWCKSNSHSSANACNIMCSKFLDDNIDDDIACAKRVVKDPNGMSAWVAWVKHCKGKDLSKYLASCNL,soluble
20,SKNFNYTISFVGSTSNNKFVSFSNQFYEGPKYYWMSNFPLYPGNPGVLQRIEEGERIGNFYTFQYAGLDDNGGWLIYSKDGEVIPIDKGTDEDKRVVGNGLPKFTMSVTHTFRCKNLDLNLYFRGNLGYQIYDVHDLYYGLQDAAPNTNVLESAYKENRKITTGKNVHSSYFVHNGDFMKLDVATLGYTWNINNKWVEKARFYITGRNLFTISGYHRGLDKDAYCVNGMEPGLPYSKNGYYPSSRQFLFGIQLNF,not soluble
21,SKVKVAVRIRPMNRRETDLHTKCVVDVDANKVILNPVNTNLSKGDARGQPKVFAYDHCFWSMDESVKEKYAGQDIVFKCLGENILQNAFDGYNACIFAYGQTGSGKSYTMMGTADQPGLIPRLCSGLFERTQKEENEEQSFKVEVSYMEIYNEKVRDLLDPKGSRQTLKVREHSVLGPYVDGLSKLAVTSYKDIESLMSEGNKSRTVAATNMNEESSRSHAVFKITLTHTLYDVKSGTSGEKVGKLSLVDLAGSERATKTGAAGDRLKEGSNINKSLTTLGLVISALADQSAGKNKNKFVPYRDSVLTWLLKDSLGGNSKTAMVATVSPAADNYDETLSTLRYADRAKHHHHHH,soluble
